Our source for the K0.5, kcat and kcat/Km values is article PMC5588734, “In vitro oxidative decarboxylation of free fatty acids to terminal alkenes by two new P450 peroxygenases” (Biotechnology for Biofuels, 2017).

Substrate in the data set: CCCCCCCCCCCC(=O)O
The experiment in a line: initial rates of substrate consumption by GC, Hill fit. Format: biochemical, Alicyclobacillus acidocaldarius. The note with it: excess H2O2, pH 7.4, 28 °C, Hill n 2.1 ± 0.8. The text has this: initial rates of substrate consumption by GC, Hill fit on CYP-Aa162

B1: CYP-Aa162 (Alicyclobacillus acidocaldarius LAA1) (protein)
chain: MNQCIPRDRTFDSSLALIKEGYLFIKNRVDQYQSDIFEARLLLENVVCMHGAEAAKLFYNTELFQRQGALPKRVQKTLFGENAIQTLDGTAHLHRKQLFLSLLTPDQEKSLATLATTQWRECAKVWENADRVVLFEEAKRMLCRIACQWTGVPLDESEVSKRADDFGAMVDAFGAVGPRHWKGRRARARAEAWLRQMIDEIRIGLRSVDEHTPLHVVAFWRDVNGNLLDAQMVAIELINLLRPIVAISTFITFSALALHEHPTWRDRLKARNEADIEMFVQEVRRYYPFAPFLGARVKKDFVWRGYEFKRGTLVLLDVYGTHHDARLWDSPNEFRPERFMRKTVGPFDLIPQGGGDSHTGHRCPGEGATIEIMKASVDFLVNQIDFEVPAQDLSYRLDVMPTLPKSGFVLTHVHRKFIASPTIATPNGSEALPSEV
What is called kcat is the number of substrate molecules converted per active site and unit of time at saturation. Broadly, the kcat/Km is the second-order rate constant that governs catalysis at low substrate concentration. On to B1, for which the K0.5 was 93.1 ± 37.7 µM, the kcat was 0.768 ± 0.285 s⁻¹ and the kcat/Km is 8330 M⁻¹ s⁻¹.
